Assay results from US20230046834A1 (BROWN UNIVERSITY, published 2023).

T1: recombinant human (rh) CTLA4 (human, UniProt P16410 36-161, limits assumed)
T1 construct: Recombinant protein; also called human CTLA4; CD152
T1 sequence (looked up): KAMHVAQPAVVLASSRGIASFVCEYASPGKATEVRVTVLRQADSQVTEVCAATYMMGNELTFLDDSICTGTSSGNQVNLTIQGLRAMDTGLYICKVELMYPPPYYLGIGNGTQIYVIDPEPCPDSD


Key:
[1] = molecular target: T2, recombinant human (rh) CHI3L1 (human, UniProt P36222 22-383); assay: competitive ELISA
T2 construct: Recombinant protein; also called human CHI3L1; chitinase 3-like-1

[2] = molecular target: T1, recombinant human (rh) CTLA4; assay: competitive ELISA

T2 sequence (P36222 22-383 limits assumed): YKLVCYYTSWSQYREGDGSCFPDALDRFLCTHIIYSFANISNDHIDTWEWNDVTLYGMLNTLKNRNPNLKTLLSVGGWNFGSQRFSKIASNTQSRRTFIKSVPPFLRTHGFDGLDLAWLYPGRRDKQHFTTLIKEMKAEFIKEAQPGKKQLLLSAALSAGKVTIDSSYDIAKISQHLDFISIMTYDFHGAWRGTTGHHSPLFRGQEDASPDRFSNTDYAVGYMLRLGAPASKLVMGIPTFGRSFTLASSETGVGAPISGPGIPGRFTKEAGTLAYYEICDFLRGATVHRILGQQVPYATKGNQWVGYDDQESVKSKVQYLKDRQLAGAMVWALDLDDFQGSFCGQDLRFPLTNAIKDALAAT

Binder | Kd [1] | limit of detection (LOD) [1] | Kd [2] | limit of detection (LOD) [2]
CHI3L1-LC-CTLA4 bispecific antibody (ScFv-CTLA4 attached to the light chain of the anti-human CHI3L1 antibody FRG) (bispecific antibody) chain 1: QVQLQQSGAELMKPGASVKISCRTTGYTFSSYWIEWVKQRPGHGLEWIGEILPGSGSTNCNEKFKGKATFTADTSSNTAYMQLSSLTSEDSAVYYCVRSDDYYDYWGQGTTLTVSS chain 2: DVLMTQTPLSLPVSLGDQASISCRSSQTIVHSNGNTYLEWYLQKPGQSPKLLIYKVSNRFSGVPDRFSGSGSGTDFTLKISRVEAEDLGVYYCFQGSHVPPTFGGGTKLEIKVEGGSGGSGGSGGSGGVDQVQLVQSGAEVVQPGRSLRLSCAASGFTFSSYTMHWVRQAPGKGLEWVTFISYDGNNKYYADSVKGRFTISRDNSKNTLYLQMNSLRSEDTAVYYCARTGWLGPFDYWGQGTLVTVSSGGGGSGGGGSGGGGSGGGGSEIVLTQSPATLSLSPGERATLSCRASQSVGSSYLAWYQQKPGQAPRLLIYGAFSRATGIPARFSGSGSGTDFTLTISSLEPEDFAVYYCQQYGSSPWTFGQGTKVEIK | ~1 nM | 2 ng/mL | ~1 nM | 2 ng/mL
anti-human CHI3L1 antibody (called "CHI3L1" or "FRG") (antibody, V domains shown) VH: QVQLQQSGAELMKPGASVKISCRTTGYTFSSYWIEWVKQRPGHGLEWIGEILPGSGSTNCNEKFKGKATFTADTSSNTAYMQLSSLTSEDSAVYYCVRSDDYYDYWGQGTTLTVSS VL: DVLMTQTPLSLPVSLGDQASISCRSSQTIVHSNGNTYLEWYLQKPGQSPKLLIYKVSNRFSGVPDRFSGSGSGTDFTLKISRVEAEDLGVYYCFQGSHVPPTFGGGTKLEIK | ~1 nM | 2 ng/mL |  | 
CHI3L1-HC-CTLA4 bispecific antibody (ScFv-CTLA4 attached to the heavy chain of the anti-human CHI3L1 antibody FRG) (bispecific antibody) chain 1: QVQLQQSGAELMKPGASVKISCRTTGYTFSSYWIEWVKQRPGHGLEWIGEILPGSGSTNCNEKFKGKATFTADTSSNTAYMQLSSLTSEDSAVYYCVRSDDYYDYWGQGTTLTVSSVEGGSGGSGGSGGSGGVDQVQLVQSGAEVVQPGRSLRLSCAASGFTFSSYTMHWVRQAPGKGLEWVTFISYDGNNKYYADSVKGRFTISRDNSKNTLYLQMNSLRSEDTAVYYCARTGWLGPFDYWGQGTLVTVSSGGGGSGGGGSGGGGSGGGGSEIVLTQSPATLSLSPGERATLSCRASQSVGSSYLAWYQQKPGQAPRLLIYGAFSRATGIPARFSGSGSGTDFTLTISSLEPEDFAVYYCQQYGSSPWTFGQGTKVEIK chain 2: DVLMTQTPLSLPVSLGDQASISCRSSQTIVHSNGNTYLEWYLQKPGQSPKLLIYKVSNRFSGVPDRFSGSGSGTDFTLKISRVEAEDLGVYYCFQGSHVPPTFGGGTKLEIK | ~1 nM | 2 ng/mL | ~1 nM | 2 ng/mL
